The values below come from patent US20130011436A1.

This test has as its target CXCR4 on murine 4T1 breast carcinoma cells (murine) (UniProt P70658). The experiment in a line: cell-based or functional assay.
UniProt P70658, sequence (P70658 whole entry): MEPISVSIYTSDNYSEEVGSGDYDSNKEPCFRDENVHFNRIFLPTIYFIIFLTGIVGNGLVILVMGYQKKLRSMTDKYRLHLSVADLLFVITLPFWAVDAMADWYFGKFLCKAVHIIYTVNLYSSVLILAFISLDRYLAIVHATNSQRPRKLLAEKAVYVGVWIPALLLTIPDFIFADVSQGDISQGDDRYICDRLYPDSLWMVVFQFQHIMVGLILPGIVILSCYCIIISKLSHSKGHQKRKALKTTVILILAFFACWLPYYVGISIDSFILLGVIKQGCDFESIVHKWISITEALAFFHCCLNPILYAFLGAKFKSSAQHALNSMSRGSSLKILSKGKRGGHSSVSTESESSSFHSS

Consider CTCE-9908 peptide, for which the inhibition of migration of 4T1 cells toward SDF1 (1,000 ng/ml), transwell assay, antagonist at 100 µg/ml is above 80%.
